These results are taken from patent publication US7151087.

The term IC50 denotes the concentration at which inhibition is half-maximal.

Substrate in this experiment: CC chemokine receptor 5 (CCR5), clone 8.5 cDNA, stably expressed on HEK 293 cells (human), P51681
As to the kind of experiment: homologous competition against ^125I-RANTES on CCR5.1 cells, 37° C. The settings on record: remark: other sources report otherwise.

CC chemokine receptor 5 (CCR5), clone 8.5 cDNA, stably expressed on HEK 293 cells (human), P51681, sequence (P51681 whole entry): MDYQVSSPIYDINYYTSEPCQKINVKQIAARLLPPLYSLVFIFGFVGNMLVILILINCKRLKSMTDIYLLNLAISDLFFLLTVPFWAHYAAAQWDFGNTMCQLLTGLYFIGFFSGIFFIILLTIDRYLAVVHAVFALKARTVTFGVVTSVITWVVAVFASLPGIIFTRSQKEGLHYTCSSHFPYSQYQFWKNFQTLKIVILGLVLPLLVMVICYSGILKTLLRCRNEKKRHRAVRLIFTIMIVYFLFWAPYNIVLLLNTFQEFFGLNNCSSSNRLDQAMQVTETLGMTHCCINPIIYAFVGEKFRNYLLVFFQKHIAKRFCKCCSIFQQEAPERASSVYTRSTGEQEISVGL

B1: RANTES, P13501 24-91 (ligand, human, UniProt P13501 24-91, looked up)
chain: SPYSSDTTPCCFAYIARPLPRAHIKEYFYTSGKCSNPAVVFVTRKNRQVCANPEKKWVREYINSLEMS
For the molecule B1, the IC50 is 80 nM.
